The record followed here is patent US7442519B2, “KCNQ2-15 potassium channel” (priority 2002, dated 2008).

One test deals with GSK-3β and PKA. Put plainly: In vitro phosphorylation assay of GST-2E11 with recombinant GSK-3β kinase and PKA. Format: biochemical. The note with it: LiCl added to the kination mix; signal negatively correlated with LiCl concentration. As to the method: Expression and purification of the GST-2E11 fusion protein were performed as described above. Beads with bound fusion protein corresponding to 1 ml of bacterial clear lysate were washed three times in NETN and one time with HMK buffer without DTT (20 mM Tris-HCl [pH 7.5], 120 mM NaCl, 12 mM MgCl2). Beads were resuspended in 240 μl of reaction mix (24 μl of 10×HMK Buffer with 20 mM DTT, 40 units of Protein Kinase A Catalytic Subunit [PKA from bovine heart, 250 units/vial, Sigma] in 40 mM DTT, 5 μl of 24 mM ATP and 207 μl of distilled water) and incubated for 30 min at room temperature. Beads were then washed three times in NETN buffer and one time in GSK-3β reaction buffer (20 mM Tris-HCl [pH 7.5], 10 mM MgCl2, 5 mM DTT) (New England Biolabs). Beads were then resuspended in 50 μl of reaction mix (5 μl of 10×GSK-3β reaction buffer, 1 μl of [^32P]γATP 10 mCi/ml, 50 U of recombinant GSK-3β[New England Biolabs], and distilled water for a final volume of 50 μl) and incubated at room temperature for 30 min. After three washes in NETN buffer, phosphorylated proteins were boiled in 2×Sample Buffer (125 mM Tris-HCl [pH 6.8], 4% SDS, 20% glycerol, 1.4 M β-Mercapto ethanol), resolved by 10% SDS-PAGE, and visualized by autoradiography.
In this phosphorylation assay, non-radiolabeled polypeptides to be tested are incubated in the presence of GSK-3β, PKA and radioactive ATP. […]

In a further test the test system is Xenopus laevis oocytes. Put plainly: Electrophysiological analysis (two-electrode voltage clamp) of homotetrameric potassium channels. The format is cell-based. To be noted: 0.4 ng of DNA injected. In general terms: Two-electrode voltage clamp is typically applied to oocytes expressing channels or transporters.
The target in the next test is T1, PP2A/Bγ (Homo sapiens, UniProt Q9Y2T4, E66D/G293D/R253P).
T1 construct: The full-length coding region of the PPP2R2C gene, which encodes the PP2A/Bγ subunit; expressed in transfected cells; host or cells: Saccharomyces cerevisiae (AH109 / Y184 mating partners)
T1 sequence (Q9Y2T4 1-447 E66D/R253P/G293D): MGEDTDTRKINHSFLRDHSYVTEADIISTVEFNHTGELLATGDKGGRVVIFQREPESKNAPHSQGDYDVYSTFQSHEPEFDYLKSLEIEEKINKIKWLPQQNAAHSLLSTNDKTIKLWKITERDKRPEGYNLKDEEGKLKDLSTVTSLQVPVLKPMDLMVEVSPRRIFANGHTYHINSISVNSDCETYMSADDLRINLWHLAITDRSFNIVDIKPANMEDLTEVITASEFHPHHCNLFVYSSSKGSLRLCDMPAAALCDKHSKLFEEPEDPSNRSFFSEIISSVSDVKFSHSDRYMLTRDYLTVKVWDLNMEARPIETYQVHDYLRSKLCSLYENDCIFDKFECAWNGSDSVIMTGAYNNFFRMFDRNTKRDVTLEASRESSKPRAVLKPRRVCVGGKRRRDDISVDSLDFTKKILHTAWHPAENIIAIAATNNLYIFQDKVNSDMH
Put plainly: Solid phase overlay assay with radiolabeled GST-PPP2R2C probe. Format: binding. To be noted: 100 ng, 10 ng and 0.1 ng loaded; band intensity proportional to loaded quantity. As for the experimental part:
Solid phase overlay assays were performed by adapting the method described by Kaelin and collaborators (Kaelin et al., 1992, Cell, 70:351-364). 100 ng, 10 ng and 0.1 ng of GST and GST-2E11 recombinant proteins were resolved by 9% SDS-PAGE and were transferred by electroblotting onto nitrocellulose membrane (nitrocellulose transfer membrane Protran BA 83, Schleicher and Schuell). The membrane were then blocked in HBB buffer (25 mM Hepes-KOH [pH 7.7], 25 mM NaCl, 5 mM MgCl2) with 5% (w/v) non-fat dry milk, 1 mM DTT, 0.05% Nonidet P-40 for 1 hr at room temperature. The binding reaction was carried out at room temperature in Hyb75 buffer (20 mM Hepes [pH 7.7], 75 mM KCl, 2.5 mM MgCl2, 0.1 mM EDTA, 0.05% Nonidet P-40) with 1% (w/v) non-fat dry milk, 1 mM DTT, 1 mM PMSF and 3.5 10^5dpm of a [^32P]-γATP GST-PPP2R2C radiolabeled recombinant protein used as a probe. After 4.5 hr of incubation, the membrane was washed with Hyb75 buffer, 1 mM DTT, 1% (w/v) non-fat dry milk three times for 15 min at room temperature. The blots were analyzed by autoradiography.
This experiment was performed to validate the interaction between KCNQ2-15b polypeptides and PP2A/Bγ. In this experiment, the PP2A/Bγ subunit was radiolabeled but not the proteins present on the nitrocellulose membrane. […] Furthermore, the intensity of the bands was proportional to the quantity of loaded GST-2E11. […]

Method for Xenopus laevis oocytes: The animal was anesthetized and pieces of the ovary were surgically removed and individual oocytes were dissected away in a saline solution (ND96) containing 96 mM NaCl, 2 mM KCl, 2 mM CaCl2, 2 mM MgCl2 and 5 mM HEPES at pH 7.4. Stage V and VI oocytes were treated at room temperanre for 2 h with collagenase type 1A (1 mg/ml) in the presence of 0.2 mg/ml trypsin inhibitor in saline solution to discard follicular cells. […] DNA corresponding to KCNQ2, 3H2 and 3H9 K+ channels were subcloned in PEKO vector in order to generate the respective cRNAS. cRNA concentrations were measured by absorbance at 260 nm. cRNA solutions were injected (about 50 nL/oocyte) using a pressure microinjector (Inject+matic, Geneve). Oocytes were then kept for 2-6 days in ND96 solution supplemented wirn 50 U/mL penicillin and 50 U/mL streptomycin.
In a 0.3 mL perfusion chamber, a single oocyte was impaled with two standard glass microelectrode (0.5-2 Mohm resistance) filled with 3M KCl and maintained under voltage clamp using a Dagan TEV200 amplifier system, USA. Electrical stimulations, data acquisition and analyses were performed using pClamp software (Axon Instruments, USA). […]

Regarding `[Cl-].[Li+]` [LiCl], in the test on GSK-3β and PKA, the “intensity of the phosphorylated GST-2E11 band” value was “decreased”.

B1: KCNQ2-15bx: polypeptide of SEQ ID NO: 2, novel KCNQ2 splice variant (protein, listed as Homo sapiens)
chain: MVQKSRNGGVYPGPSGEKKLKVGFVGLDPGAPDSTRDGALLIAGSEAPKRGSILSKPRAGGAGAGKPPKRNAFYRKLQNFLYNVLERPRGWAFIYHAYVFLLVFSCLVLSVFSTIKEYEKSSEGALYILEIVTIVVFGVEYFVRIWAAGCCCRYRGWRGRLKFARKPFCVIDIMVLIASIAVLAAGSQGNVFATSALRSLRFLQILRMIRMDRRGGTWKLLGSVVYAHSKELVTAWYIGFLCLILASFLVYLAEKGENDHFDTYADALWWGLITLTTIGYGDKYPQTWNGRLLAATFTLIGVSFFALPAGILGSGFALKVQEQHRQKHFEKRRNPAAGLIQSAWRFYATNLSRTDLHSTWQYYERTVTVPMYSSQTQTYGASRLIPPLNQLELLRNLKSKSGLAFRKDPPPEPSPSKGSPCRGPLCGCCPGRSSQKVSLKDRVFSSPRGVAAKGKGSPQAQTVRRSPSADQSLEDSPSKVPKSWSFGDRSRARQAFRIKGAASRQNSEEASLPGEDIVDDKSCPCEFVTEDLTPGLKVSIRAVCVMRFLVSKRKFKESLRPYDVMDVIEQYSAGHLDMLSRIKSLQSRQEPRLPVQQGTRTGWASGTKPTVAHGGSAGGVWAGPPPHPRRPLSASVVSSQSLF
With B1, in the test on Xenopus laevis oocytes, the “intensity of the M-current generated by the homotetrameric potassium channel” value is reported as “about 800 nA”.

B2: GST-2E11: fusion protein between a KCNQ2-15b polypeptide comprising exons 13, 14 and 15b and GST (protein)
chain: SSQKVSLKDRVFSSPRGVAAKGKGSPQAQTVRRSPSADQSLEDSPSKVPKSWSFGDRSRARQAFRIKGAASRQNSEEASLPGEDIVDDKSCPCEFVTEDLTPGLKVSIRAVCVMRFLVSKRKFKESLRPYDVMDVIEQYSAGHLDMLSRIKSLQSRQEPRLPVQQGTRTGWASGTKPTVAHGGSAGGVWAGPPPHPRRPLSASVVSSQSLF
modifications: left off: a dimerising Fc or GST
notes: fusion protein between a KCNQ2-15b polypeptide comprising exons 13, 14 and 15b and GST
B2: in the test with PP2A/Bγ, the “interaction with PP2A/Bγ (band by autoradiography)” value is listed as “interacts”.

B3: KCNQ2-15by: polypeptide of SEQ ID NO: 4, novel KCNQ2 splice variant (protein, listed as Homo sapiens)
chain: MVQKSRNGGVYPGPSGEKKLKVGFVGLDPGAPDSTRDGALLIAGSEAPKRGSILSKPRAGGAGAGKPPKRNAFYRKLQNFLYNVLERPRGWAFIYHAYVFLLVFSCLVLSVFSTIKEYEKSSEGALYILEIVTIVVFGVEYFVRIWAAGCCCRYRGWRGRLKFARKPFCVIDIMVLIASIAVLAAGSQGNVFATSALRSLRFLQILRMIRMDRRGGTWKLLGSVVYAHSKELVTAWYIGFLCLILASFLVYLAEKGENDHFDTYADALWWGLITLTTIGYGDKYPQTWNGRLLAATFTLIGVSFFALPAGILGSGFALKVQEQHRQKHFEKRRNPAAGLIQSAWRFYATNLSRTDLHSTWQYYERTVTVPMYSSQTQTYGASRLIPPLNQLELLRNLKSKSGLAFRKDPPPEPSPSQKVSLKDRVFSSPRGVAAKGKGSPQAQTVRRSPSADQSLEDSPSKVPKSWSFGDRSRARQAFRIKGAASRQNSEEASLPGEDIVDDKSCPCEFVTEDLTPGLKVSIRAVCVMRFLVSKRKFKESLRPYDVMDVIEQYSAGHLDMLSRIKSLQSRQEPRLPVQQGTRTGWASGTKPTVAHGGSAGGVWAGPPPHPRRPLSASVVSSQSLF
Take B3: the “intensity of the M-current generated by the homotetrameric potassium channel” value in the test on Xenopus laevis oocytes was “about 700 nA”.
